Literature values in publication PMC5996525.

Target: CTLA-4 (Homo sapiens) (UniProt P16410)
Experiment: SPR

UniProt P16410, sequence (P16410 36-161): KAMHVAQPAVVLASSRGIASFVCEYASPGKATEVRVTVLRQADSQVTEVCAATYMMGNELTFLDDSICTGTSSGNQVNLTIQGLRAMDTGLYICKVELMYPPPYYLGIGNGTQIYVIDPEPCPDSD

Substance: tremelimumab
- Kd: 5.89 nM
